Test results: the supplement of paper PMC12042874
± gives the uncertainty stated by the source.

Test: amyloid nucleation score (Sup35N fusion, yeast selection) (log enrichment); library NNK3; higher = more nucleation; inactive = no reads after selection
Summary of the method: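 The nucleation score equals the log enrichment of output over input reads from DiMSum, centred on the mode score of non-aggregating sequences. It was computed only for sequences with 100 or more input reads. The reads came from Illumina sequencing of plasmid inserts from psi-negative yeast expressing Sup35N fused to peptides of 20 random codons, induced with 100 μM copper sulfate for 24 hours and grown 7 days at 30°C without adenine and uracil.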
With PVNYVYLTRFH the amyloid nucleation score was “inactive”. VNILVFLCFAPSLSSRYWWL showed an amyloid nucleation score of 2.28 ± 0.081. With DECYNVLRSVVYGMTSSTGW the amyloid nucleation score was “inactive”. For IWGMIFIGKSSYDISDYVCH, the amyloid nucleation score was “inactive”. In the case of RGPVNCYYRISPRRPRHVSE, the amyloid nucleation score is reported as “inactive”. In the case of TDWYVIF, the amyloid nucleation score is reported as “inactive”. For PWLLVIIVLFGLYCRM, the amyloid nucleation score was “inactive”. For SCPLR, the amyloid nucleation score was “inactive”. For SCYSLSSESSCSVGMCSTLG, the amyloid nucleation score was “inactive”. With GWAGGSLNARMSRWF the amyloid nucleation score was 0.881 ± 0.17. In the case of STYFLLILFEGKCFNCSVGK, the amyloid nucleation score is reported as 1.38 ± 0.077. In the case of LNGIEGSGY, the amyloid nucleation score is reported as “inactive”. With FGFFWP the amyloid nucleation score was “inactive”. In the case of DLYIYCFWLDMVITVCKRQK, the amyloid nucleation score is reported as “inactive”. For YNDWQKEMCIITICVL, the amyloid nucleation score was “inactive”. For GRSLVYR, the amyloid nucleation score was “inactive”. Substance FFVSDKLVFSNTLLQKNKSP has an amyloid nucleation score of 0.881 ± 0.19. With EKDNKLLVICMLV the amyloid nucleation score was “inactive”. For EFGPVTPGSEPQALLCTRRL, the amyloid nucleation score was “inactive”. For LNSFFAAIHILMGHFKRILS, the amyloid nucleation score was “inactive”. For CCLYTVNNSDSLVNTTVGVG, the amyloid nucleation score was “inactive”. With MGLIERLWWSTPIKF the amyloid nucleation score was “inactive”. For ADTTCHFACKPKLDFLRKTT, the amyloid nucleation score was “inactive”. In the case of WCGEKVCCRAQMSLTIKSLL, the amyloid nucleation score is reported as “inactive”. In the case of ISPGRAGQVVSLAGHSYQAL, the amyloid nucleation score is reported as “inactive”. In the case of SNDIRF, the amyloid nucleation score is reported as “inactive”. With HDVDLGWFSRYGIFRALRRE the amyloid nucleation score was “inactive”. With PYETGRKCNA the amyloid nucleation score was “inactive”. In the case of LTIVAYVVATYSFCWWISVG, the amyloid nucleation score is reported as “inactive”. Work on GCNGDRFRF yielded an amyloid nucleation score of -0.255 ± 0.88. Work on WFNLCYFG yielded an amyloid nucleation score of 2.5 ± 0.069. In the case of MFLKMRWSNAVRMARKCNLE, the amyloid nucleation score is reported as “inactive”. In the case of DDRLCLGASENVWGFTVVRR, the amyloid nucleation score is reported as “inactive”. With FYMISPTISFLLFGLLANI the amyloid nucleation score was “inactive”. In the case of HSVFFY, the amyloid nucleation score is reported as “inactive”. In the case of PVLARYL, the amyloid nucleation score is reported as “inactive”. Substance RYSLCCYGGFFRYSRDFMRR has an amyloid nucleation score of 1.14 ± 0.14. With FCRLWVRVSSDTFYYSFSGN the amyloid nucleation score was 0.537 ± 0.47. SLGFCKVGALLRWFCSQCQG gave an amyloid nucleation score of 0.561 ± 0.37. In the case of WGRISNAHG, the amyloid nucleation score is reported as “inactive”. For RIVFSKVMLVEIRTSLWFCT, the amyloid nucleation score was “inactive”. In the case of EWCSMYILSC, the amyloid nucleation score is reported as “inactive”. For YTLGHRTPMLIYDVAGRPNY, the amyloid nucleation score was “inactive”. In the case of FENSLFYTKVMDPCSFVWYW, the amyloid nucleation score is reported as “inactive”. In the case of HYLLACSYDRFFSRSSAYSL, the amyloid nucleation score is reported as “inactive”. In the case of ELLCSYTYKIGFQWFC, the amyloid nucleation score is reported as “inactive”. NNCTSTRSMVVGEYRKKGAL showed an amyloid nucleation score of -0.46 ± 0.84. In the case of DIRSGTLC, the amyloid nucleation score is reported as “inactive”. RNATIALCAGWVIYDSVFKG showed an amyloid nucleation score of 2.27 ± 0.073. With TSDIFTSRYILAIDPRMNWV the amyloid nucleation score was “inactive”. In the case of REFKY, the amyloid nucleation score is reported as “inactive”. For NLTRGYISRKRMSCPQ, the amyloid nucleation score was “inactive”. With THDVFSSVMLGSFSLSSTTN the amyloid nucleation score was “inactive”. With RPEAAYSVKYLVLV the amyloid nucleation score was “inactive”. With PTGFLLPDAGWKIYTGSLDV the amyloid nucleation score was “inactive”. VFYFDSFRICSYVVLYGHMA gave an amyloid nucleation score of 0.601 ± 0.28. GIWCYAITLGFRPAGSTWDS showed an amyloid nucleation score of 1.02 ± 0.15. VVMWQRRLRYGPKERNNGKV showed an amyloid nucleation score of -0.067 ± 0.4. In the case of VTICISPAHLFAS, the amyloid nucleation score is reported as “inactive”. For SGSDILISYLLFCYNACLTF, the amyloid nucleation score was “inactive”. GLLVTTPMLKLNYFNVLDLG gave an amyloid nucleation score of 0.99 ± 0.1. In the case of VYLKLSILFSCAFSN, the amyloid nucleation score is reported as “inactive”. In the case of CFGHYSMN, the amyloid nucleation score is reported as “inactive”. With IEDAMVFLGTNSQTICLFNV the amyloid nucleation score was “inactive”. In the case of ASDGCSLRVAPVTQSPLWVS, the amyloid nucleation score is reported as “inactive”. For YAMCIISIAFPLTL, the amyloid nucleation score was “inactive”. For RRKRSQSE, the amyloid nucleation score was “inactive”. For VSTSFDFKWNLSLGIWFMVI, the amyloid nucleation score was “inactive”. With IYNVFDDEDMICTSLVVSRS the amyloid nucleation score was “inactive”. In the case of YITMNVHSRDASVRWLDF, the amyloid nucleation score is reported as “inactive”. In the case of LTLLCSDECWVFMSMGDRTF, the amyloid nucleation score is reported as “inactive”. With NKVVAKHGFGVRSFKIWGLD the amyloid nucleation score was “inactive”. In the case of KITSRGCN, the amyloid nucleation score is reported as “inactive”. For LISNFVWLQLRCA, the amyloid nucleation score was “inactive”. With GPFARNS the amyloid nucleation score was “inactive”. With HSDILRFCLMVNKDTVHSVL the amyloid nucleation score was “inactive”. Work on VKWLLGMSEWKG yielded an amyloid nucleation score of -0.877 ± 2.4. For GIGVSESRCVTVIWYYGGAV, the amyloid nucleation score was “inactive”. In the case of YYGLAVWSERNVRWMGEGEA, the amyloid nucleation score is reported as “inactive”. For RTLFYFLDDSQFVLV, the amyloid nucleation score was “inactive”. With YVSSAILRNRVLCHCYFTML the amyloid nucleation score was “inactive”. With IPVCAWRWSG the amyloid nucleation score was “inactive”. In the case of FRHFRSLLSVFLVYRFQLSV, the amyloid nucleation score is reported as “inactive”. For VRCSR, the amyloid nucleation score was “inactive”. For SFSMIRE, the amyloid nucleation score was “inactive”. With TCSVTEMVTL the amyloid nucleation score was “inactive”. For YVTSNSVDRTIKCSAFILIC, the amyloid nucleation score was “inactive”. With YTRNKQDIWGGNHGSRCQNG the amyloid nucleation score was “inactive”. For LTSMNSGLSYLKLFASQNLR, the amyloid nucleation score was “inactive”. With NDNINRSPESSALWYD the amyloid nucleation score was “inactive”. With YYTGCHSSVSC the amyloid nucleation score was “inactive”. In the case of SSCSSDLAKQYGDMTFI, the amyloid nucleation score is reported as “inactive”. With SVPDCELVAYKSSLWCTHLT the amyloid nucleation score was “inactive”. For IVKNDGNGHLLYTLCVFRFW, the amyloid nucleation score was “inactive”. With VALVVHSLR the amyloid nucleation score was “inactive”. With FYSYRTCDGRIAGIIAGNRA the amyloid nucleation score was “inactive”. For SRGLYKYLGLRFFMYGRVLR, the amyloid nucleation score was “inactive”. In the case of SVMMVMEEFFQWGLKVNMRT, the amyloid nucleation score is reported as -0.078 ± 0.54. VGTFRGSEGPRFVLVV showed an amyloid nucleation score of -0.486 ± 1.9. For SLPNA, the amyloid nucleation score was “inactive”. In the case of ADSLRCVSWFSD, the amyloid nucleation score is reported as “inactive”. For GPHRILIAVESMTYFEGEVW, the amyloid nucleation score was “inactive”. In the case of WKLGLK, the amyloid nucleation score is reported as “inactive”. Substance MWVPYSAFRMDQEFGFYGIT has an amyloid nucleation score of 0.057 ± 0.24. For VCGDRKIFNHADVVYRMGRS, the amyloid nucleation score was “inactive”. With RGVAVR the amyloid nucleation score was 1.89 ± 0.077. With SLGAMYVRCDKSWR the amyloid nucleation score was “inactive”. With SQGLYVGPVAPSGTVRRVWM the amyloid nucleation score was “inactive”. With ALHFDFIFIYRDRCCCCTFY the amyloid nucleation score was 1.27 ± 0.1. In the case of AIKVGASIINFLWLAHVWCP, the amyloid nucleation score is reported as “inactive”. For HMCIG, the amyloid nucleation score was “inactive”. In the case of QVSFM, the amyloid nucleation score is reported as “inactive”. For TLRNGQMTIGYCSKGISEVG, the amyloid nucleation score was “inactive”. In the case of NLMEHSIGLYAYYYSLNDCS, the amyloid nucleation score is reported as “inactive”. For RNVGKGNAVQSGPAWIERS, the amyloid nucleation score was “inactive”. For FEVIFYSGYAYLACPRRQCH, the amyloid nucleation score was “inactive”. With HIVSRP the amyloid nucleation score was “inactive”. For PYSIVSGPRIFYGCYHSFI, the amyloid nucleation score was “inactive”. In the case of VGKYAGCCLKRPSLDAMGHV, the amyloid nucleation score is reported as “inactive”. For VGDVFSKRCHMRLFMNSLER, the amyloid nucleation score was “inactive”. Substance DSRAGRGMSFLRFNRRSVDE has an amyloid nucleation score of 0.209 ± 0.38. For GSVSYISLSDNWVSGRKK, the amyloid nucleation score was “inactive”. For GSRLAGLVVYDFSLSQWYFS, the amyloid nucleation score was 2.84 ± 0.079. For KYPNRKLF, the amyloid nucleation score was “inactive”. For CVVIFICPQKG, the amyloid nucleation score was 0.811 ± 0.26. With NGWLLTRLSMHLTFGIYMLV the amyloid nucleation score was “inactive”. In the case of ESQISEN, the amyloid nucleation score is reported as “inactive”. For VYVCYIL, the amyloid nucleation score was 1.73 ± 0.077. For HEYECGWIGVVFTMILMSLS, the amyloid nucleation score was “inactive”. With CYELLESS the amyloid nucleation score was “inactive”. For ILSLPRRNYSKTVFNRLKAE, the amyloid nucleation score was “inactive”. For VGVMLYWVKEFFVL, the amyloid nucleation score was “inactive”. With DCGVVCSRNRNAEEEMLDSV the amyloid nucleation score was “inactive”. In the case of RFVYRVNNRSKVLSEARMCI, the amyloid nucleation score is reported as “inactive”. In the case of PHTWGGR, the amyloid nucleation score is reported as “inactive”. With VLASWASYPTGSQSKGGERT the amyloid nucleation score was “inactive”. For VYRDFSGYFRLGWFDMSSVR, the amyloid nucleation score was “inactive”. With DVNVALIHSDL the amyloid nucleation score was “inactive”. In the case of FDMTL, the amyloid nucleation score is reported as “inactive”. ARIYCSWYPLYTFYLIHSH showed an amyloid nucleation score of 0.644 ± 0.2. In the case of EFKIALRRPINERAESLVTR, the amyloid nucleation score is reported as “inactive”. Work on THLCIEMLRM yielded an amyloid nucleation score of -0.297 ± 0.88. For GDGAYS, the amyloid nucleation score was “inactive”. With MLMVLRGRSRDNNVQSLLFA the amyloid nucleation score was -0.292 ± 1.2. With FGSGRVSQLVRYDSFLEEFL the amyloid nucleation score was “inactive”. In the case of WSINAIGQTHINSEVLGVLF, the amyloid nucleation score is reported as “inactive”. With YCSLMMMVYRDFFTLVNASV the amyloid nucleation score was “inactive”. For VCSYSMISHSAKWFVLILEW, the amyloid nucleation score was “inactive”. CLRVLWLSQLTVSCDF gave an amyloid nucleation score of -0.354 ± 1.8. For IIVVCDSDRLFLPNQPPNVI, the amyloid nucleation score was “inactive”. For VICRKLVMPFVESNRWHWSN, the amyloid nucleation score was “inactive”. RGCGVQMS gave an amyloid nucleation score of 0.882 ± 0.24. Work on SDIYWNGGLMYWICSMSVFI yielded an amyloid nucleation score of 2.84 ± 0.078. INFVYSHM showed an amyloid nucleation score of 1.75 ± 0.12. In the case of FVFSRNG, the amyloid nucleation score is reported as “inactive”. For PVAVLDG, the amyloid nucleation score was 0.654 ± 0.18. In the case of GRRRIRNCVSRACLMYIQHV, the amyloid nucleation score is reported as 0.434 ± 0.23. With HSYFDFYSYDSYNVRHRSVK the amyloid nucleation score was “inactive”. With FLLFFAKWCLY the amyloid nucleation score was “inactive”. NDWRCKEVTSSDIWAFVYCS gave an amyloid nucleation score of 0.967 ± 0.12. For VNPCLYGPYSSNNCSRSYFV, the amyloid nucleation score was “inactive”. For NARVDVRRVVLHAKMPSFTI, the amyloid nucleation score was “inactive”.
